This note sets out measurements from patent US20070117180.

PACE4 (Plasminogen Angiostatin Converting Enzyme of pH 4), sequence (chain, as listed by the source): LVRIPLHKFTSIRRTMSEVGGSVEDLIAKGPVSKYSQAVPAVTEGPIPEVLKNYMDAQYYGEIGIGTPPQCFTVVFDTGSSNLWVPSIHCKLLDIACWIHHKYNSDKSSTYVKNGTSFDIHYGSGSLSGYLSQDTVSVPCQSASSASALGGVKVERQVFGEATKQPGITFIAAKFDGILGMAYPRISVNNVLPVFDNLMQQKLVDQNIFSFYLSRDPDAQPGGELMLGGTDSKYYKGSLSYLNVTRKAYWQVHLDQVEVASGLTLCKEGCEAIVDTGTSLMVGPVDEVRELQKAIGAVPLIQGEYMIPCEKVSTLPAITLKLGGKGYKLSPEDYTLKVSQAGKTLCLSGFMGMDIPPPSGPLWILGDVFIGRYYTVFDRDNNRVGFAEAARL
plasminogen (Glu-1), sequence (chain, as listed by the source): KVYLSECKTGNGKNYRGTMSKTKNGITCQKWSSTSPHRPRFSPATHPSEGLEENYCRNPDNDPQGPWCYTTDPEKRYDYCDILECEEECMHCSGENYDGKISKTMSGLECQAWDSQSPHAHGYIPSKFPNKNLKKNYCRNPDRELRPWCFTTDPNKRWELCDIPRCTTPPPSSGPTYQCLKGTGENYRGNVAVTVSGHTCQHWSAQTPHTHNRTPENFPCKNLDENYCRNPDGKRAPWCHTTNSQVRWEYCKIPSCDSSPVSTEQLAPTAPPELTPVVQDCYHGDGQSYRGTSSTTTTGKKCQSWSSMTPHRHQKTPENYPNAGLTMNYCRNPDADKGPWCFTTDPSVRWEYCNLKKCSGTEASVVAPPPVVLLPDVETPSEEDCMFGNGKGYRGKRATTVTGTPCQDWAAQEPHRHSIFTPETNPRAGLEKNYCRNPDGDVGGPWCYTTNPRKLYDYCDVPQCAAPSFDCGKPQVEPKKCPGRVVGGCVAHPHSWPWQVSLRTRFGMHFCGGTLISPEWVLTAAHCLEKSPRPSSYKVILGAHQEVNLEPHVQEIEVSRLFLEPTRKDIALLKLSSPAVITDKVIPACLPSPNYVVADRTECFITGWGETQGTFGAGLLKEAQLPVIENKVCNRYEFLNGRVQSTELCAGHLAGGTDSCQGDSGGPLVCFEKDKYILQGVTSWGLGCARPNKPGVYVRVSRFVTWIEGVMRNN

Turning to “PACE4 (Plasminogen Angiostatin Converting Enzyme of pH 4)”, the “degradation of fibronectin by the enzyme” value in the data set with fibronectin is “Fibronectin was degraded restrictedly with this enzyme”. In addition, the “fragmentation of plasminogen (SDS-PAGE) at neutral and acidic pH” value in the data set with plasminogen (Glu-1) was “the enzyme of the present invention fragments plasminogen only at an acidic range of pH”.
